Results from the Human Domainome abundance scans (Beltran et al. 2025).
± gives the uncertainty stated by the source.

B1: Pituitary-specific positive transcription factor 1, residues 130 to 198; numbered along this chain, P28069 (parent)
chain: RELEKFANEFKVRRIKLGYTQTNVGEALAAVHGSEFSQTTICRFENLQLSFKNACKLKAILSKWLEEAE

Variants of: B1
Assay: abundance fitness (aPCA) (normalised: wild type 0, dead -1); higher = more abundant; growth selection in yeast, the domain comes from the species named
Settings: Homo sapiens

| Variant | abundance fitness |
| --- | --- |
| RELMKFANEFKVRRIKLGYTQTNVGEALAAVHGSEFSQTTICRFENLQLSFKNACKLKAILSKWLEEAE [E4M] | -0.451 ± 0.21 |
| RELSKFANEFKVRRIKLGYTQTNVGEALAAVHGSEFSQTTICRFENLQLSFKNACKLKAILSKWLEEAE [E4S] | -0.157 ± 0.079 |
| RELTKFANEFKVRRIKLGYTQTNVGEALAAVHGSEFSQTTICRFENLQLSFKNACKLKAILSKWLEEAE [E4T] | -0.249 ± 0.074 |
| RELVKFANEFKVRRIKLGYTQTNVGEALAAVHGSEFSQTTICRFENLQLSFKNACKLKAILSKWLEEAE [E4V] | -0.072 ± 0.07 |
| RELKKFANEFKVRRIKLGYTQTNVGEALAAVHGSEFSQTTICRFENLQLSFKNACKLKAILSKWLEEAE [E4K] | -0.084 ± 0.08 |
| RELYKFANEFKVRRIKLGYTQTNVGEALAAVHGSEFSQTTICRFENLQLSFKNACKLKAILSKWLEEAE [E4Y] | -0.604 ± 0.24 |
| RELQKFANEFKVRRIKLGYTQTNVGEALAAVHGSEFSQTTICRFENLQLSFKNACKLKAILSKWLEEAE [E4Q] | -0.245 ± 0.27 |
| RELPKFANEFKVRRIKLGYTQTNVGEALAAVHGSEFSQTTICRFENLQLSFKNACKLKAILSKWLEEAE [E4P] | -0.898 ± 0.15 |
| RELRKFANEFKVRRIKLGYTQTNVGEALAAVHGSEFSQTTICRFENLQLSFKNACKLKAILSKWLEEAE [E4R] | -0.229 ± 0.058 |
| RELLKFANEFKVRRIKLGYTQTNVGEALAAVHGSEFSQTTICRFENLQLSFKNACKLKAILSKWLEEAE [E4L] | -0.579 ± 0.11 |
| RELEKFQNEFKVRRIKLGYTQTNVGEALAAVHGSEFSQTTICRFENLQLSFKNACKLKAILSKWLEEAE [A7Q] | -0.944 ± 0.46 |
| RELEKFENEFKVRRIKLGYTQTNVGEALAAVHGSEFSQTTICRFENLQLSFKNACKLKAILSKWLEEAE [A7E] | -0.235 ± 0.11 |
| RELEKFSNEFKVRRIKLGYTQTNVGEALAAVHGSEFSQTTICRFENLQLSFKNACKLKAILSKWLEEAE [A7S] | -0.425 ± 0.19 |
| RELEKFDNEFKVRRIKLGYTQTNVGEALAAVHGSEFSQTTICRFENLQLSFKNACKLKAILSKWLEEAE [A7D] | -0.783 ± 0.15 |
| RELEKFGNEFKVRRIKLGYTQTNVGEALAAVHGSEFSQTTICRFENLQLSFKNACKLKAILSKWLEEAE [A7G] | -0.885 ± 0.16 |
| RELEKFCNEFKVRRIKLGYTQTNVGEALAAVHGSEFSQTTICRFENLQLSFKNACKLKAILSKWLEEAE [A7C] | -0.21 ± 0.061 |
| RELEKFMNEFKVRRIKLGYTQTNVGEALAAVHGSEFSQTTICRFENLQLSFKNACKLKAILSKWLEEAE [A7M] | -0.551 ± 0.15 |
| RELEKFTNEFKVRRIKLGYTQTNVGEALAAVHGSEFSQTTICRFENLQLSFKNACKLKAILSKWLEEAE [A7T] | -0.356 ± 0.17 |
| RELEKFHNEFKVRRIKLGYTQTNVGEALAAVHGSEFSQTTICRFENLQLSFKNACKLKAILSKWLEEAE [A7H] | -0.973 ± 0.34 |
| RELEKFLNEFKVRRIKLGYTQTNVGEALAAVHGSEFSQTTICRFENLQLSFKNACKLKAILSKWLEEAE [A7L] | -0.975 ± 0.13 |

| Variant | abundance fitness |
| --- | --- |
| RELEKFINEFKVRRIKLGYTQTNVGEALAAVHGSEFSQTTICRFENLQLSFKNACKLKAILSKWLEEAE [A7I] | 0.162 ± 0.11 |
| RELEKFRNEFKVRRIKLGYTQTNVGEALAAVHGSEFSQTTICRFENLQLSFKNACKLKAILSKWLEEAE [A7R] | -0.7 ± 0.094 |
| RELEKFAPEFKVRRIKLGYTQTNVGEALAAVHGSEFSQTTICRFENLQLSFKNACKLKAILSKWLEEAE [N8P] | -0.783 ± 0.37 |
| RELEKFAQEFKVRRIKLGYTQTNVGEALAAVHGSEFSQTTICRFENLQLSFKNACKLKAILSKWLEEAE [N8Q] | 0.12 ± 0.17 |
| RELEKFAEEFKVRRIKLGYTQTNVGEALAAVHGSEFSQTTICRFENLQLSFKNACKLKAILSKWLEEAE [N8E] | -0.168 ± 0.15 |
| RELEKFAVEFKVRRIKLGYTQTNVGEALAAVHGSEFSQTTICRFENLQLSFKNACKLKAILSKWLEEAE [N8V] | -0.224 ± 0.12 |
| RELEKFAAEFKVRRIKLGYTQTNVGEALAAVHGSEFSQTTICRFENLQLSFKNACKLKAILSKWLEEAE [N8A] | 0.133 ± 0.064 |
| RELEKFAGEFKVRRIKLGYTQTNVGEALAAVHGSEFSQTTICRFENLQLSFKNACKLKAILSKWLEEAE [N8G] | -0.336 ± 0.12 |
| RELEKFAMEFKVRRIKLGYTQTNVGEALAAVHGSEFSQTTICRFENLQLSFKNACKLKAILSKWLEEAE [N8M] | -0.027 ± 0.11 |
| RELEKFAKEFKVRRIKLGYTQTNVGEALAAVHGSEFSQTTICRFENLQLSFKNACKLKAILSKWLEEAE [N8K] | 0.155 ± 0.12 |
| RELEKFACEFKVRRIKLGYTQTNVGEALAAVHGSEFSQTTICRFENLQLSFKNACKLKAILSKWLEEAE [N8C] | -0.496 ± 0.16 |
| RELEKFAWEFKVRRIKLGYTQTNVGEALAAVHGSEFSQTTICRFENLQLSFKNACKLKAILSKWLEEAE [N8W] | -0.414 ± 0.097 |
| RELEKFAYEFKVRRIKLGYTQTNVGEALAAVHGSEFSQTTICRFENLQLSFKNACKLKAILSKWLEEAE [N8Y] | -0.094 ± 0.15 |
| RELEKFALEFKVRRIKLGYTQTNVGEALAAVHGSEFSQTTICRFENLQLSFKNACKLKAILSKWLEEAE [N8L] | 0.093 ± 0.072 |
| RELEKFAREFKVRRIKLGYTQTNVGEALAAVHGSEFSQTTICRFENLQLSFKNACKLKAILSKWLEEAE [N8R] | 0.188 ± 0.076 |
| RELEKFAFEFKVRRIKLGYTQTNVGEALAAVHGSEFSQTTICRFENLQLSFKNACKLKAILSKWLEEAE [N8F] | -0.262 ± 0.073 |
| RELEKFATEFKVRRIKLGYTQTNVGEALAAVHGSEFSQTTICRFENLQLSFKNACKLKAILSKWLEEAE [N8T] | -0.04 ± 0.1 |
| RELEKFADEFKVRRIKLGYTQTNVGEALAAVHGSEFSQTTICRFENLQLSFKNACKLKAILSKWLEEAE [N8D] | -0.532 ± 0.17 |
| RELEKFAIEFKVRRIKLGYTQTNVGEALAAVHGSEFSQTTICRFENLQLSFKNACKLKAILSKWLEEAE [N8I] | 0.024 ± 0.14 |
